Measured values reported in US5403737A, “Serine protease variants having peptide ligase activity” (priority 1993, dated 1995).

Test: Esterase activity: hydrolysis of an activated ester substrate (Table III)
Assay type: biochemical
Conditions: ratio of the apparent second order rate constants (kcat/KM), Sbz versus pNA substrate
Description: Table III: Kinetic constants for the hydrolysis of an amide substrate (s-Ala-Ala-Pro-Phe-pNA) and for an activated ester substrate (s-Ala-Ala-Pro-Phe-Sbz). The ratio of esterase to amidase activities is the ratio of the apparent second order rate constants (kcat/KM). The aminolysis to hydrolysis ratio was investigated using the thiobenzyl ester substrate with 3.6 mM of the dipeptide Ala-Phe-amide as the nucleophile.
Kinetic Assays. The esterase and amidase activities were obtained from initial rate measurements using a Kontron Uvikon 860 spectrophotometer. The assay for esterase activity utilized the substrate s-Ala-Ala-Pro-Phe-Sbz at (25°±0.2° C.) in 100 mM Tris-HCl (pH 8.60), 4% (v/v) dimethylsulfoxide, 0.005% (v/v) Tween 80. With the non-cysteine containing proteases, DTNB (Ellman (1959), Arch. Biochem. Biophys., 82, 70-77) was added to a concentration of 37.5 μM to visualize the release of thiolbenzoate upon hydrolysis of the substrate. […] The amidase activities were measured under identical conditions by following the increase in absorbance at 412 nm upon hydrolysis of p-nitroanilide from s-Ala-Ala-Pro-Phe-pNA.

B1: wild type: wild type subtilisin (BPN') from Bacillus amyloliquefaciens (protein, UniProt P00782 108-382, looked up)
Subtilisin BPN': AQSVPYGVSQIKAPALHSQGYTGSNVKVAVIDSGIDSSHPDLKVAGGASMVPSETNPFQDNNSHGTHVAGTVAALNNSIGVLGVAPSASLYAVKVLGADGSGQYSWIINGIEWAIANNMDVINMSLGGPSGSAALKAAVDKAVASGVVVVAAAGNEGTSGSSSTVGYPGKYPSVIAVGAVDSSNQRASFSSVGPELDVMAPGVSIQSTLPGNKYGAYNGTSMASPHVAGAAALILSKHPNWTNTQVRSSLENTTTKLGDSFYYGKGLINVQAAAQ
In the case of B1, the esterase/amidase is reported as 4.8.
